Our source for the stoichiometry N values is article PMC4650709.

The target of the experiment is Ara h 1 (peanut). Put plainly: SEC; purified Ara h 1; conditions not given. (In general: SEC sorts molecules by how far they enter the pores of the column.)

Substance Ara h 1 (natural protein) gave a stoichiometry N of 3.

Broadly, the stoichiometry N is the number of molecules, sites or subunits per partner or assembly.
